Quantification data for one substance are collected here from US20010025379A1.

What all share (experiment): yeast two-hybrid, liquid β-galactosidase quantification
In experiment [1] the target is cycB1;1 in the GAL4 DNA-binding domain vector (yeast two-hybrid fusion) (Arabidopsis thaliana).
Experiment [2] deals with Cdc2a in the GAL4 DNA-binding domain vector (yeast two-hybrid fusion) (Arabidopsis thaliana).
Experiment [3] concerns the target ATMAP2 in the GAL4 DNA-binding domain vector (yeast two-hybrid fusion) (Arabidopsis thaliana).
Experiment [4] addresses cycB2;2 in the GAL4 DNA-binding domain vector (yeast two-hybrid fusion) (Arabidopsis thaliana).
Experiment [5] deals with PCNAAt in the GAL4 DNA-binding domain vector (yeast two-hybrid fusion) (Arabidopsis thaliana).
Experiment [6] deals with cycD1;1 in the GAL4 DNA-binding domain vector (yeast two-hybrid fusion) (Arabidopsis thaliana).
In experiment [7] the target is Cdc2b in the GAL4 DNA-binding domain vector (yeast two-hybrid fusion) (Arabidopsis thaliana).
The target of experiment [8] is cycD2;1 in the GAL4 DNA-binding domain vector (yeast two-hybrid fusion) (Arabidopsis thaliana).
In experiment [9] the target is cycA2;2 in the GAL4 DNA-binding domain vector (yeast two-hybrid fusion) (Arabidopsis thaliana).
Experiment [10] deals with cycD3;1 in the GAL4 DNA-binding domain vector (yeast two-hybrid fusion / bait) (Arabidopsis thaliana).
The target in experiment [11] is DB-vector alone (GAL4 DNA-binding domain without insert), control (UniProt P04386).

On to “ICK1 in a GAL4-activation domain vector (yeast two-hybrid fusion) (from UniProt P04386 768-881)”, for which the Quantification in experiment [1] was found to be 0.06; in experiment [2] it was 2.65; in experiment [3], 0; in experiment [4], 0.05; in [5] it was 0; in experiment [6], 3.13. The Quantification in experiment [7] stood at 0; in experiment [8] it was 14.8; in [9] it was 0.03; in [10], 22.7; in experiment [11], 0.
